Target: T1, human Amyloid beta 1-42 peptide (Homo sapiens, UniProt P05067)
T1 construct: biotinylated human Amyloid beta 1-42 peptide (rpeptide, USA; cat: A1117); purchased rPeptide, USA A1117; host or cells: synthetic peptide
Experiment: Surface Plasmon Resonance kinetic profiling of purified scFv (ProteOn)
Type: binding
Conditions: biotinylated human Amyloid beta 1-42 on streptavidin chip
From the text: Surface Plasmon Resonance was used to analyse the purified scFv clones that had shown significant improvement in binding affinity for human Amyloid beta 1-42 peptide over the parent sequence, Abet0144-GL, in the HTRF™ epitope competition assay (sections 1.3-1.6). Briefly, the ProteOn Protein Interaction Array System (BioRad, USA) was used to assess the kinetic parameters of the interaction between each purified scFv and synthetically produced human Amyloid beta 1-42 peptide. These experiments were performed essentially as described by Karlsson et al. (Karlsson et al., 1991).
The affinity of binding between each test scFv and human Amyloid beta 1-42 was estimated using assays in which biotinylated synthetic human Amyloid beta 1-42 peptide (rPeptide, USA; cat: Al 117) was non-covalently bound via a biotin/streptavidin interaction to a proprietary streptavidin chip (NTA 176-5021) at five different surface densities. The chip surface was regenerated between cycles by a single 60 second injection of 10 mM Glycine pH 2.0 to remove scFv bound to the peptide.
Each scFv at 100-200 nM was sequentially passed over the peptide surface for a sufficient amount of time to observe sensorgrams that could be fitted to an appropriate binding model with confidence. An irrelevant scFv blank was subtracted from the main dataset to reduce the impact of any buffer artefacts or non-specific binding effects. An appropriate binding model was then fitted to the data.

T1 sequence (P05067 672-713): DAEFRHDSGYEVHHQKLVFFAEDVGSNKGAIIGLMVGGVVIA

Molecule | ka | kd
Abet0332: optimized anti-Aβ1-42 clone derived from Abet0144-GL (protein, left off: small tags and cut ends, optimized anti-Aβ1-42 clone derived from Abet0144-GL) scFv (part 1 of 2): EVQLLESGGGLVQPGESLRLSCAASSDSWHTDIMWWVRQAPGKRLEWVSVIGNSNKKIAYADSVKGRFTISRDNSKNTLYLQMNSLRAEDTAVYYCAREWMDHSRPYYYYGMDVWGQGTLVTVSS scFv (part 2 of 2): SYELTQPPSVSVSPGQTASITCSGHNIGAKWVSWYQQKPGQSPILVIYRDDKRPSGIPERFSASNSGHTATLTISGTQATDEADYYCQAQGQVTRSFGGGTKLTVL | 329000 M⁻¹ s⁻¹ | 0.000129 s⁻¹
Abet0322b: optimized anti-Aβ1-42 clone derived from Abet0144-GL (protein, left off: small tags and cut ends, optimized anti-Aβ1-42 clone derived from Abet0144-GL) scFv (part 1 of 2): EVQLLESGGGLVQPGGSLRLSCAASNEEFQYNPMWWVRQAPGKGLEWVSVIGSSGGATVYADAVKGRFTISRDNSENTLYLQMNSLRAEDTAVYYCAREWMDHSRPYYYYGMDVWGQGTLVTVSS scFv (part 2 of 2): SYELTQPPSVSVSPGQTASITCSGHNLGDKFASWYQQKPGQSPVLVIYRDDKRPSEIPERFSASNSGHTATLTISGTQATDEADYYCSSQDTVTRVFGGGTKLTVL | 203000 M⁻¹ s⁻¹ | 0.000165 s⁻¹
Abet0371: optimized anti-Aβ1-42 clone derived from Abet0144-GL (protein, left off: small tags and cut ends, optimized anti-Aβ1-42 clone derived from Abet0144-GL) scFv (part 1 of 2): EVQLSESGGGLVQPGGSLRLSCAASHDAFPFDTMWWVRQAPGKGLEWVSVIGSSGGTTVYADSVKGRFTVSRDNSKNTLYLQMNSLRAEDTAVYYCAREWMDHSRPYYYYGMDVWGQGTLVTVSS scFv (part 2 of 2): SYELTQPPSVSVSPGQTASITCSGHNISSSWVSWYQQKPGQSPVLVIYRDDKRPSGIPERFSASNSGHTATLTISGTQATDEADYYCSSQDTVTRVFGGGTKLTVL | 357000 M⁻¹ s⁻¹ | 0.000272 s⁻¹
Abet0368: optimized anti-Aβ1-42 clone derived from Abet0144-GL (protein, left off: small tags and cut ends, optimized anti-Aβ1-42 clone derived from Abet0144-GL) scFv (part 1 of 2): EVQLLESGGGLVQPGGSLRLSCAASGFDFGPSPMWWVRQAPGKGLEWVSVIGKDTQNSTYADSVKGRFTISRDNSKDTLYLQMNSLKAEDTAVYYCAREWMDHSRPYYYYGMDVWGQGTLVTVSS scFv (part 2 of 2): SYELTQPPSVSVSPGQTASITCSGHNLEDKFTSWYQQKSGQSPVLVIYRDDKRPSGIPERFSASNSGHTATLTISGAQATDEADYYCSSQDTVTRVFGGGTKLTVL | 187000 M⁻¹ s⁻¹ | 9e-05 s⁻¹
Abet0329: optimized anti-Aβ1-42 clone derived from Abet0144-GL (protein, left off: small tags and cut ends, optimized anti-Aβ1-42 clone derived from Abet0144-GL) scFv (part 1 of 2): EVQLLESGGGLVQPGGSLRLSCAASTFNLKRETMWWVRQAPGKGLEWVSVIGSHQERTSYADSVKGRFTISRDNSKNTLYLQMNSLRAEDTAVYYCAREWMDHSRPYYYYGMDVWGQGTLVTVSS scFv (part 2 of 2): SYELTQPPSVSVSPGQTASITCSGHNVSDKWMTWYQQKPGQSPVLVIYRDDKRPSGIPERFSASNSGHTATLTISGTQATDEADYYCSSQDTVTRVFGGGTKLTVL | 197000 M⁻¹ s⁻¹ | 0.000138 s⁻¹
Abet0343: optimized anti-Aβ1-42 clone from VH1:VH2:VL3 recombination library (protein, left off: small tags and cut ends, optimized anti-Aβ1-42 clone from VH1:VH2:VL3 recombination library) scFv (part 1 of 2): EVQLLESGGGLVQPGGSLRLSCAASGFNFNHQVMWWVRQAPGKGLEWVSVIGKTNENIAYADSVKGRFTISRDNSKNTLYLQMNSLRAEDTAVYYCAREWMDHSRPYYYYGMDVWGQGTLVTVSS scFv (part 2 of 2): QSVLTQPPSVSVSPGQTASITCSGHNLEDKFASWYQQKSGQSPVLVIYRDDKRPSGIPERFSASNSGHTATLTISGTQATDEADYYCSSQDTVTRVFGGGTKLTVL | 120000 M⁻¹ s⁻¹ | 2.25e-05 s⁻¹
Abet0323b: optimized anti-Aβ1-42 clone derived from Abet0144-GL (protein, left off: small tags and cut ends, optimized anti-Aβ1-42 clone derived from Abet0144-GL) scFv (part 1 of 2): EVQLLESGGGLVQPGGSLRLSCAASTSTFQEDTMWWVRQAPGKGLEWVSVIGPNPKNNAYADSVKGRFTISRDNSKNTLYLQMNSLRAEDTAVYYCAREWMDHSRPYYYYGMDVWGQGTLVTVSS scFv (part 2 of 2): SYELTQPPSVSVSPGQTASITCSGHNLEDKFASWYQQKPGQSPVLVIYRDDKRPSGVPERFSASNSGHTATLTISGTQATDEADYYCSSQDTVTRVFGGGTKLIVL | 210000 M⁻¹ s⁻¹ | 0.000188 s⁻¹
Abet0342: optimized anti-Aβ1-42 clone derived from Abet0144-GL (protein, left off: small tags and cut ends, optimized anti-Aβ1-42 clone derived from Abet0144-GL) scFv (part 1 of 2): EVQLLESGGGLVQPGGSLRLSCAASGFDFRRSVMWWVRQAPGKGLEWVSVIGAQTQNKAYADSVKGRFTISRDNSKNTLYLQMNSLRAEDTAVYYCAREWMDHSRPYYYYGMDVWGQGTLVTVSS scFv (part 2 of 2): SYELTQPPSVSVSPGQTASITCSGHNLEDKFASWYQQKPGQSPVLVIYRDDKRPSGIPERFSASNSGDTATLTISGTQAMDEADYYCQAQDSTTRVFGGGTKLTVL | 136000 M⁻¹ s⁻¹ | 5.73e-05 s⁻¹
Abet0328: optimized anti-Aβ1-42 clone derived from Abet0144-GL (protein, left off: small tags and cut ends, optimized anti-Aβ1-42 clone derived from Abet0144-GL) scFv (part 1 of 2): EVQLLESGGGLVQPGGSLRLSCAASRDPFKADTMWWVRQAPRKRLEWVSVIGAHTTNSAYADSVKGRFTISRDNSKNTLYLQMNSLRAEDTAVYYCAREWMDRSRPYYYYGMDVWGQGTLVTVSS scFv (part 2 of 2): SYELTQPPSVSVSPGQTVSITCSGRNLEDKFASWYQQKPGQSPVLVIYRDDKRPSGVPERFSASNSGHTATLTISGTQATDEADYYCSSQDTVTRVFGGGTKLTVL | 141000 M⁻¹ s⁻¹ | 0.000103 s⁻¹
Abet0344: optimized anti-Aβ1-42 clone derived from Abet0144-GL (protein, left off: small tags and cut ends, optimized anti-Aβ1-42 clone derived from Abet0144-GL) scFv (part 1 of 2): EVQLLESGGGLVQPGGSLSLSCAASGFTFSVYTMWWVRQAPGKGLEWVSVIGGNETRKAYADSVKGRFTISRDNSKNRLYLQMNSLRAEDTAVYYCAREWMDHSRPYYYYGMDVWGQGTLVTVSS scFv (part 2 of 2): QSVLTQPPSVSVSPGQTASITCSGHNLEDKFASWYQQKSGQSPVLVIYRDDKRPSGIPERFSASNSGHTATLTISGTQATDEADYYCATQDNFTRVFGGGTKLTVL | 77500 M⁻¹ s⁻¹ | 5.73e-05 s⁻¹
Abet0370: optimized anti-Aβ1-42 clone derived from Abet0144-GL (protein, left off: small tags and cut ends, optimized anti-Aβ1-42 clone derived from Abet0144-GL) scFv (part 1 of 2): EVQLLESGGGLVQPGGSLRLSCAASGFHFPMSAMWWVRQAPGKGLEWVSVIGETPERQAYADSVKGRFTISRDNSKSTLYLQMNSLRAEDTAVYYCAREWMDHSRPYYYYGMDVWGQGTLVTVSS scFv (part 2 of 2): SYELTQPPSVSVSPGQTASITCTTPHFNSKFASWYQQKPGQSPVLVIYRDDKRPSGIPERFSASNSGHTATLTISGTQAMDEADYYCQAQDSTTRVFGGGTRLTVL | 119000 M⁻¹ s⁻¹ | 7.76e-05 s⁻¹
